PMC10981135
Where two headings read alike, the source gives them in different places.

Tests used:
Test in all cases: BLI
PfAlba6 Y28A [1] = target: T1, PfAlba6 Y28A (Plasmodium falciparum 3D7, UniProt Q8I617 1-96, Y28A)
T1 sequence: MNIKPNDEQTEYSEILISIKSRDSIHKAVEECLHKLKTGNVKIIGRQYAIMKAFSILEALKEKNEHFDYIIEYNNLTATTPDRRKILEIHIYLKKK

PfAlba6 Y28A [2] = target: T1, PfAlba6 Y28A; remark: listed apart in the source
PfAlba6 = target: T2, PfAlba6 (Plasmodium falciparum 3D7, UniProt Q8I617)
T2 sequence: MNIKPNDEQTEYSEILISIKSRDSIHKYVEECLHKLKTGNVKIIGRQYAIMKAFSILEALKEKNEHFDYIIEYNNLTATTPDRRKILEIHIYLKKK

B1: 28 bp dsDNA (C28) (dsDNA)
DNA 1: TGGCGAAAGGGGGTTGTGCTGCAAGGCG
DNA 2: CGCCTTGCAGCACAACCCCCTTTCGCCA
Question: Which results are given for B1?
Answer: Kd (PfAlba6 Y28A [1]): 12.1 ± 0.83 nM; Kd (PfAlba6 Y28A [2]): 10 ± 0.9 nM; Kd (PfAlba6): 10 ± 0.37 nM
